According to article PMC10651892, “A supramolecular system mimicking the infection process of an enveloped virus through membrane fusion” (Scientific Reports, 2023):
Where no end group is shown, it is not given here. TMR‑5‑maleimide = tetramethylrhodamine-5-maleimide

B1: β-annulus-EE peptide (peptide)
peptide: INHVGGTGGAIMAPVAVTRQLVGSEE
notes: 24-residue β-annulus peptide involved in the formation of the dodecahedral internal skeleton of tomato bushy stunt virus (capsid protein); two anionic amino acids (Glu) added at the C-terminal side by design; Self-assembles into the anionic artificial viral capsid; also called 26-residue β-annulus-EE peptide; source: synthetic peptide (Fmoc solid-phase method, purified by reverse-phase HPLC)
B2: TMR-β-annulus-EE peptide (peptide)
peptide: C(TMR‑5‑maleimide)INHVGGTGGAIMAPVAVTRQLVGSEE
notes: Cys added at the N-terminus to carry the TMR dye; 24-residue β-annulus peptide involved in the formation of the dodecahedral internal skeleton of tomato bushy stunt virus (capsid protein); two anionic amino acids (Glu) added at the C-terminal side by design; also called Cys-β-annulus-EE peptide modified with TMR-maleimide; source: synthetic peptide (Fmoc solid-phase method; Michael addition of …)

Key:
[1] = target: the molecule itself; test: dynamic light scattering; 90 μM β-annulus-EE peptide and 10 μM TMR-β-annulus-EE peptide co-assembled (molar ratio 9:1) in 10 mM phosphate buffer (pH 7.0) containing 1% DMSO, 25 °C
β-annulus-EE peptide = target: B1; test: as above; conditions: both partners purified

**Q.** Does B1 bind [1]?
**A.** binds

**Q.** Does B2 bind (β-annulus-EE peptide)?
**A.** binds
